{
  "source": "patent US8536230B2",
  "about": "“Methods for regulating gelation of polysaccharide solutions and uses thereof” (University of Virginia Patent Foundation, priority 2006, dated 2013)",
  "test": "In vitro release of FITC-dextran / FITC-albumin from chitosan-AHP gels in PBS",
  "format": "physicochemical",
  "details": "FITC albumin loaded (1, 2, and 3%) gels, PBS 37° C.",
  "protocol": "FITC dextran loaded samples (0.5×1 cm) were placed in histology cups and incubated in 50 mL PBS at 37° C. in a shaking water bath. At predetermined time points, 5 mL of the release media was removed and replenished with 5 mL of PBS. The FITC dextran concentration was determined spectrophotometrically and the percentage cumulative release was calculated. The three groups include 1% dextran, 0.5% dextran, and 0.5% dextran diluted. (see FIG. 8A).\nFor FITC-dextran loading, appropriate amounts (0.5, 1, and 5% w/v) of FITC-dextrans were dissolved in chitosan-AHP solutions. The respective dextran loaded solutions were poured into petri dishes and allowed to set at 37° C. for 12 h. Circular discs (8 mm diameter) were bored from the thermo-gelled films for in vitro release studies. […] The FITC-dextran concentration in the release media were determined spectrophotometrically at 491 nm and the percentage cumulative release was calculated based on the total FITC-D content. Statistical significance (p<0.05) was determined using one way ANOVA.\nAlso tested was the release profile of FITC-labeled bovine serum albumin from chitosan-AHP gels represented as the percentage cumulative release. […] The FITC albumin concentration was determined spectrophotometrically and the percentage cumulative release was calculated. […]",
  "data": [
    {"substance": "FITC-albumin: FITC-labeled bovine serum albumin loaded in chitosan-AHP gels", "values": [
      {"measurement": "percentage cumulative release profile", "value": "significantly lower compared to FITC-Dextran"}
    ]}
  ]
}
